Target: human serum albumin (HSA) (Homo sapiens, UniProt P02768 25-609)
Experiment: fluorescence titration (FAM); PBS; 10 uM oligomer; HSA Kd: 10 uM oligomer, PBS, 30 min, 25 C (Methods) or 37 C (Figure S7); HSA EMSA: TA/TAM buffer, 1 h, native 8% PAAG at 37 C; Ku/PARP1 EMSA: 50 mM Tris-HCl pH
Details: protein: commercial, label: 5'-FAM, single strand, micelles

Sequence of human serum albumin (HSA) (P02768 25-609): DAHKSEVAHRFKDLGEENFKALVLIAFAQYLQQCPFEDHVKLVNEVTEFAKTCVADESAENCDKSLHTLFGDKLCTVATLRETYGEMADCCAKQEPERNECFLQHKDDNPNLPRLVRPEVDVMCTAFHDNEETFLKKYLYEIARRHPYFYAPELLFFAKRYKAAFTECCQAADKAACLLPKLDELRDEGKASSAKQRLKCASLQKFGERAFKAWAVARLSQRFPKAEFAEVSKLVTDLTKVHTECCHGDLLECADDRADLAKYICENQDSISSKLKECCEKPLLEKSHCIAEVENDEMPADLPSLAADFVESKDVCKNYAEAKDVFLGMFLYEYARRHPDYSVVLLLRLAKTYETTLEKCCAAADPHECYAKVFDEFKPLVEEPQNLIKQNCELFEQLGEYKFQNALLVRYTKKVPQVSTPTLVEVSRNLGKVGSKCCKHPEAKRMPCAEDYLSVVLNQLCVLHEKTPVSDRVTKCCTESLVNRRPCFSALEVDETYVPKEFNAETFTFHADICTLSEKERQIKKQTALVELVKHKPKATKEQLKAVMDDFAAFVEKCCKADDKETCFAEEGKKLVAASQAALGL

B1: FAM-TZD16 (FAM-TZ16) (ssDNA)
DNA: CTGACTATGAAGTATT
modifications: triazinyl phosphoramidate with two dodecyl groups at the last internucleotide phosphate (T15*T16)
Kd: 1500 ± 100 nM

B2: FAM-TZD17 (FAM-TZ17) (ssDNA)
DNA: AGTCTCGACTTGCTATT
modifications: triazinyl phosphoramidate with two dodecyl groups at the last internucleotide phosphate (T16*T17)
Kd (can form weak hairpin or self-dimers): 1200 ± 200 nM

Source: publication PMC10747088, “Self-Penetrating Oligonucleotide Derivatives: Features of Self-Assembly and Interactions with Serum and Intracellular Proteins”
